Test results: PMC6197822

Target: Thr315Ala variant of the catalytic domain of ICR^Mc (ICR^Mccat^Thr315Ala) (Moraxella catarrhalis strain BC1)
Test: crystal structure

Q: For “Thr315Ala variant of the catalytic domain of ICR^Mc (ICR^Mccat^Thr315Ala) (domain or fragment)”, which stoichiometry N is on record?
A: 2
